This note sets out measurements from US20230340147A1 (published 2023).

Changes are numbered by the printed parent chain. Values joined by “and” are separate entries in the source; they are usually repeats but may differ in a detail not shown here. Equal values may be shown once. Ends that are not written are not given here. * marks the point of attachment. G0F = octasaccharide N-glycan with alpha-1,6 core fucose (Formula Ib, linkages Formula Ic), CC(=O)N[C@@H]1[C@@H](O)[C@H](O[C@@H]2O[C@H](CO)[C@@H](O[C@@H]3O[C@H](CO[C@H]4O[C@H](CO)[C@@H](O)[C@H](O)[C@@H]4O[C@@H]4O[C@H](CO)[C@@H](O)[C@H](O)[C@H]4NC(C)=O)[C@@H](O)[C@H](O[C@H]4O[C@H](CO)[C@@H](O)[C@H](O)[C@@H]4O[C@@H]4O[C@H](CO)[C@@H](O)[C@H](O)[C@H]4NC(C)=O)[C@@H]3O)[C@H](O)[C@H]2NC(C)=O)[C@@H](CO[C@@H]2O[C@@H](C)[C@@H](O)[C@@H](O)[C@@H]2O)O[C@H]1*

To fix the notation:
T1: PSA(67-79)-G0F (human, also: Asn3 N-glycosylated with octasaccharide carrying alpha-1,6 core fucose (G0F))
T1 construct: Synthetic glycopeptide (3.9 kDa as SPR analyte), made on Sieber Amide resin; For the ELISAs a biotinylated form was used (glutamic acid derivative with a PEG3-biotin side chain at the N-terminus); also called PSA(67-79)-GOF; glycopeptide of Formula Ib
T1 peptide: IRN(G0F)KSVILLGRHS-NH2

T2: Fucosylated PSA disaccharide glycopeptide (DP) (human, not fully specified (residue 3, C-terminus))
T2 construct: also called glycopeptide of Formula IV
T2 peptide: IRNKSVILLGRHS

B1: 2E9 (antibody, V domains shown)
VH: QSLEESGGDLVKPGASLTLTCTASGFSFSAGYDMCWVRQAPGKGLEWIACIYADGSGSTYYANWAKGRFTISLASSTTVTLQMTGLTAADTATYFCAREGADGPDYGYAAFSLWGPGTLVTVSS
VL: DVVMTQTPASVEAAVGGTVTIKCQASQSISNYFSWYQQKPGQPPKLLIYKASTLASGVPSRFKGSGSGTEFTLTISDLECADAATYYCQSFYGSVTSDYGGFAFGGGTEVVVK
notes: Rabbit monoclonal IgG (150 kDa); also called anti-1,6fucPSA antibody 2E9
B2: 2H9 (antibody, V domains shown)
VH: B1 VH with A30S, L45P, N63S, L73M, A74T, G85R, G103D, D105N, F111L, S112R
VL: B1 VL with V2I, F33L, S34A, A51T, T96S
notes: Rabbit monoclonal IgG (150 kDa); also called anti-1,6fucPSA antibody 2H9
B3: 13C5 (antibody, V domains shown)
VH: QSLEESGGDLVKPGASLTLTCTASGFSFSSGYDMCWVRQAPGKGLEWIGCIYADGSGTTYYATWAKGRFTISNPSATTVTLQMTRLTAADTATYFCAREGADNPNYGYAALRLWGPGTLVTVSS
VL: B1 VL with V2I, E12S, A13G, V19I, A51T, Y92W, V95G, T96S
notes: Rabbit monoclonal IgG (150 kDa); also called anti-1,6fucPSA antibody 13C5
B4: 2C11 (antibody, V domains shown)
VH: QSLEESGGGLVKPGGTLTLTCKASGFSFGPGYDMCWVRQAPGKGLEWIACIYADGSDNTYYASWARGRFTISKTSSTTVTLQMTRLTAADTATYFCAREGADNPNYGYAALRLWGPGTLVTVSS
VL: B1 VL with V2I, A14P, Q27E, N31S, F33L, S34A, A51T, D82N, T96S
notes: Rabbit monoclonal IgG (150 kDa); also called anti-1,6fucPSA antibody 2C11
B5: 3B10 (antibody, V domains shown)
VH: B4 VH with G29S, P30S, R66K
VL: B1 VL with V2I, A14P, S26T, N31S, F33L, A51T, D82N, F91Y, V95I, T96S
notes: Rabbit monoclonal IgG (150 kDa); also called anti-1,6fucPSA antibody 3B10
B6: 3H6 (antibody, V domains shown)
VH: B1 VH with A30S, N63S, L73K, A74P, G85R
VL: B1 VL with V2I, S28T, N31S, T53S, E70Q, T96S, Y99V
notes: Rabbit monoclonal IgG (150 kDa); also called anti-1,6fucPSA antibody 3H6

As usually defined, the Kd is the concentration at which binding is half-saturated. The low end stands for higher affinity, the high end for lower affinity. As a reminder, the koff is the first-order rate constant of dissociation. Low values mean slow dissociation, high ones fast dissociation. One may read the kon as a measure of how fast the partners come together.

For the first test, the target named is T1, PSA(67-79)-G0F. The test can be described thus: SPR, Biacore 8k, 37 C, antibody captured by anti-rabbit Fc, peptide as analyte, Langmuir fit. On the procedure: (§1) 30 μg/ml of a Fcγ-fragment binding, polyclonal goat anti-Rabbit IgG (GARb-Fcγ, Jackson Laboratories) in 10 mM sodium acetate buffer (pH 4.5) was pre-concentrated in all 16 flow cells, and up to 10000 RU GARb-Fcγ were immobilized according to the manufacturer's instructions using EDC/NHS chemistry. Rabbit IgG antibody (150 kDa) containing rabbit B-cell primary cell culture supernatants were diluted three-fold with sample buffer and were captured for 2 min under a flow rate of 5 μl/min on 8 sample flow cells. The antibody Capture Level (CL) was quantified in response units (RU) for each antibody.
(§2) The non fucosylated peptide analyte PSA(67-79)-G2 (3.7 kDa) and the fucosylated peptide analyte PSA(67-79)-GOF (3.9 kDa) were diluted in sample buffer in concentration series of 0 nM (buffer), 11 nM, 33 nM, 100 nM, 300 nM, and 900 nM. The 100 nM analyte samples were injected twice as control. The analytes were injected at 30 μl/min for 3 min association time. After the association phase of the 900 nM analyte injection a report point (Binding Late) was set to quantify the signal response at antibody ligand saturation. The antibody antigen dissociation was monitored for 5 min. The GARb-Fcγ antibody capture system was regenerated by injection of 10 mM glycine pH 2 at 30 μl/min for 1 min, followed by two consecutive 1 min injections of 10 mM glycine pH 2.25 at 30 μl/min. Overlay plots of concentration dependent antigen binding were generated and kinetic rates were determined with the Biacore 8k evaluation software using a Langmuir fitting model with RMAX local. The antibody/antigen complex half-life was calculated in minutes according to the formula t_{1/2 diss}=ln(2)/60*kd.
(In SPR one partner is held on a chip, and binding of the other changes the refractive index at the surface.)
Molecule B1 came in with a Kd of 0.6 nM, an off-rate constant (koff) of 0.00112 s⁻¹, an on-rate (kon) of 1.75e+06 M⁻¹ s⁻¹ and a t/2diss of 10 min.

Molecule B2 came in with a dissociation constant Kd of 2 nM, a koff of 0.00105 s⁻¹, a kon of 578000 M⁻¹ s⁻¹ and a t/2diss of 11 min.

Molecule B3 gave a Kd of 0.4 nM, a koff of 0.00038 s⁻¹, a kon of 981000 M⁻¹ s⁻¹ and a t/2diss of 31 min.

For B4, the equilibrium dissociation constant (Kd) turned out to be 1 nM, the off-rate constant (koff) was 0.00078 s⁻¹, the on-rate (kon) came out at 779000 M⁻¹ s⁻¹ and the t/2diss came to 15 min.

In turn, B5 showed a Kd of 11 nM, a koff of 0.0121 s⁻¹, an on-rate (kon) of 1.14e+06 M⁻¹ s⁻¹ and a t/2diss of 1 min.

The molecule B6 registered a dissociation constant (Kd) of 4 nM, a koff of 0.00536 s⁻¹, a kon of 1.52e+06 M⁻¹ s⁻¹ and a t/2diss of 2 min.

A further test has as its target T2, Fucosylated PSA disaccharide …. The test can be described thus: IHC peptide inhibition, antibody pre-incubated with peptide. The protocol:
FIG. 8. Inhibition of anti-1,6fucPSA antibody binding by fucosylated PSA disaccharide glycopeptide (DP) in IHC analysis of FFPE samples of prostate adenocarcinoma samples. From top to bottom rows, exemplary anti-1,6fucPSA antibodies, FIG. 8A: 2E9, 3B10, and 3H6 at 2.5 μg/ml, 2.5 μg/ml, and 2.5 μg/ml, respectively; FIG. 8B: 13C5, 2H9, and 2C11 at 3 μg/ml, 2.5 μg/ml, and 1 μg/ml, respectively. For FIG. 8A and FIG. 8B, antibodies were pre-incubated with, from left to right columns, PBS buffer (control) or DP at 5×10⁻⁹ M, 5×10⁻⁸ M, 5×10⁻⁷ M, 5×10⁻⁶ M, or 5×10⁻⁵ M.
To verify that anti-1,6fucPSA antibodies recognize specifically and selectively the core-fucosylated PSA epitope, staining specificity was tested by peptide inhibition analysis.
Consider B1, for which the “peptide concentration giving complete inhibition” value is 5 µM.

B2: the “peptide concentration giving complete inhibition” value is 5 µM.

Regarding B3, the “peptide concentration giving complete inhibition” value turned out to be 5 µM.

Turning to B4, the “peptide concentration giving complete inhibition” value turned out to be 5 µM.

In the case of B5, the “peptide concentration giving complete inhibition” value amounted to 5 µM.

As for B6, the “peptide concentration giving complete inhibition” value turned out to be 5 µM.

A further test deals with T1, PSA(67-79)-G0F. The test can be described thus: Hit-ELISA, biotinylated peptide on streptavidin plate, supernatant of recombinant expression. On the procedure:
Subsequently Hit-ELISA (i.e. ELISAs testing the binding to the screening agents) was used to identify B-cells expressing antibodies having desired binding characteristics, i.e. binding the PSA(67-79)-GOF peptide and capable of discriminating from PSA(67-79)-G2 and Asn-GOF. Biotinylated screening agents PSA(67-79)-GOF, PSA(67-79)-G2 and Asn-GOF were immobilized on the surface of streptavidin-coated 96-well plates (Nunc) by incubation of 100 μl per well of 100 ng/ml solutions for 60 min at room temperature, respectively. The plates were washed and 30 μl of rabbit B-cell culture supernatant was transferred to each well and incubated for 1 h at room temperature. For the detection of antibodies bound to the screening agents, HRP-labeled F(ab′)₂ goat anti-rabbit Fcγ (Dianova) and ABTS substrate solution (Roche) were used according to manufacturer's instructions. 16 clones were identified that bound to PSA(67-79)-GOF and discriminated from the negative screening agents according to the selected cut-offs (OD>0.6 in positive screening and <0.6 in negative screening). The 16 clones were selected for subsequent molecular cloning and recombinant expression as also described in Seeber et al., PLoS One 9(2014), issue 2, e86184. For 15 out of the 16 clones the sequences could be successfully cloned and the sequences encoding VH and VL could be unambiguously determined. The Hit-ELISA using the screening agents was then repeated with the supernatant of the recombinant expression and the more stringent cut-off criteria (OD>1 for positive screening agent and OD at/below average background signal for negative screening agents) were fulfilled for all 15 previously selected clones for which unambiguous VH and VL sequences were retrieved.
Take B1: the OD was > 1 OD.

As to B2, the OD is > 1 OD.

For B3, the OD is > 1 OD.

B4: the OD was > 1 OD.

In the case of B5, the OD was > 1 OD.

In the case of B6, the OD is > 1 OD.

The next test addresses T1, PSA(67-79)-G0F. The test can be described thus: SPR, Biacore 8k, 37 C, antibody captured by anti-rabbit Fc, 900 nM peptide injection. The protocol: as §1, §2
As for B1, the “BL (Binding Late)” value turned out to be 27 RU.

B2: the “BL (Binding Late)” value was 54 RU.

With B3, the “BL (Binding Late)” value was found to be 29 RU.

For the molecule B4, the “BL (Binding Late)” value stood at 53 RU.

Consider B5, for which the “BL (Binding Late)” value amounted to 31 RU.

Turning to B6, the “BL (Binding Late)” value was found to be 25 RU.

In another test the target is PSA in formalin-fixed, paraffin-embedded (FFPE) prostate tissue (human) (UniProt P07288). The test can be described thus: IHC on FFPE tumor tissue array (Tour of Tumor), prostate core.
Sequence of PSA in formalin-fixed, paraffin-embedded (FFPE) prostate tissue (human) (P07288 25-261 limits assumed): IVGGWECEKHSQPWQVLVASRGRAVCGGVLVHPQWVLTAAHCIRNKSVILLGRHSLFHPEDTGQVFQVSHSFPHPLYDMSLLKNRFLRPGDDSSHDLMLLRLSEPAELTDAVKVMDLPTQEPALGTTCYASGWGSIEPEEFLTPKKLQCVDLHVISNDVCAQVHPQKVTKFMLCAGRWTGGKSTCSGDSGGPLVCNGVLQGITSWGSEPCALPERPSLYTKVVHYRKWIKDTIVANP
Regarding “anti-PSA mouse monoclonal antibody ER-PR8”, the IHC staining intensity was 3 + and 3.5 +.

For the molecule B1, the IHC staining intensity was 3.5 + and 3.25 +.

In the case of B2, the IHC staining intensity is 3 + and 2.75 +.

B3: the IHC staining intensity was 3.5 + and 3 +.

For the molecule B4, the IHC staining intensity is 3 + and 2.5 +.

In the case of B5, the IHC staining intensity is 3 + and 2.5 +.

As to B6, the IHC staining intensity was 3.25 + and 3 +.

In the next test the target is T1, PSA(67-79)-G0F. The test can be described thus: SPR, Biacore 8k, 37 C, antibody captured by anti-rabbit Fc, peptide as analyte. On the procedure:
as §1, §2
Molar Ratio (MR) indicating antibody-antigen binding stoichiometry was also determined and calculated as MR=(analyte Binding Late (RU)/antibody Capture Level (RU)) x (MW(antibody)/MW (analyte)).
In the case of B1, the “MR (Molar Ratio)” value was 2.

Turning to B2, the “MR (Molar Ratio)” value was determined as 2.

As for B3, the “MR (Molar Ratio)” value was 2.

Consider B4, for which the “MR (Molar Ratio)” value is 1.

Turning to B5, the “MR (Molar Ratio)” value came to 1.

B6: the “MR (Molar Ratio)” value came out at 1.
